Test results as given in patent US20020088015A1.

Biological target: GAL4-WT1 (WT1 fused to the DNA-binding domain of GAL4) (UniProt P04386)
Assay: cell-based or functional assay

WT1-mediated transcriptional repression of pGAL4TKCAT (CAT assay): 3 fold
Substance: par-4 expressed from pCMV-par-4 in transfected cells
